B1: "Na(+)/H(+) exchange regulatory cofactor NHE-RF1" (Homo sapiens), O14745 (parent)
chain: MSADAAAGAPLPRLCCLEKGPNGYGFHLHGEKGKLGQYIRLVEPGSPAEKAGLLAGDRLVEVNGENVEKETHQQVVSRIRAALNAVRLLVVDPETDEQLQKLGVQVREELLRAQEAPGQAEPPAAAEVQGAGNENEPREADKSHPEQRELRPRLCTMKKGPSGYGFNLHSDKSKPGQFIRSVDPDSPAEASGLRAQDRIVEVNGVCMEGKQHGDVVSAIRAGGDETKLLVVDRETDEFFKKCRVIPSQEHLNGPLPVPFTNGEIQKENSREALAEAALESPRPALVRSASSDTSEELNSQDSPPKQDSTAPSSTSSSDPILDFNISLAMAKERAHQKRSSKRAPQMDWSKKNELFSNL

Variants of: B1
Conditions: with moes_human MSN

Variant	effect of a mutation on the interaction
F355R	decreasing interaction
